Assay results published in patent US20240158769A1 (RHEINISCH WESTF LISCHE TECHNISCHE HOCHSCHULE RWTH AACHEN, published 2024).

Biological target: the molecule itself
Assay: size exclusion chromatography against protein standards (peaks at 80 kDa and 50 kDa; data not shown)

B1: Phytase chimera PTRec 77 (enzyme)
chain: SDTAPAGFQLERVVILSRHGVRAPTKMTQTMRDVTPHQWPEWPVKLGYITPRGEHLISLMGGFYRERFQQQGLLPKDNCPTPDAVYVWADVDQRTRLTGQAFLDGIAPGCGLKVHYQADLEKVDPLFHPVEAGVCQLDSTQTHRAIEAQLGAPLSELSQRYAKPFAQMSEILNFTASPYCKSLQQQGKSCDFATFAANEVKVNQQGTKVSLSGPLALSSTLGEVFLLQEAQGMPQVAWGRITGEKEWRDLLSLHNAQFDLLQRTPYLAKHNGTPLLQTIAHALGSNITSRPLPDISPDNKILFIAGHDTNIANISGMLGMTWTLPGQPDNTPPGGALVFERWVDNAGKPYVSVNMVYQTLAQLHDQAPLTLQHPAGSVRLNIPGCSDQTPDGYCPLSTFSRLVSHSVEPACQLP
modifications: N-linked glycans, heterogeneous (hypermannosylation), from secretion by Pichia pastoris; sites not stated
notes: Recombinant chimera of phytase fragments from Hafnia alvei, Yersinia mollaretii and Citrobacter braakii; It was secreted by P. pastoris and purified; also called DJ 11
B1: no binding.
